{"source": "the Human Domainome abundance scans (Beltran et al. 2025)", "parents": {"B1": {"name": "Apoptosis-associated speck-like protein containing a CARD, residues 114 to 194; numbered along this chain, Q9ULZ3 (parent)", "chain": "FIDQHRAALIARVTNVEWLLDALYGKVLTDEQYQAVRAEPTNPSKMRKLFSFTPAWNWTCKDLLLQALRESQSYLVEDLER"}}, "note": "± gives the uncertainty stated by the source.", "data": [{"variants_of": "B1", "experiment": "abundance fitness (aPCA) (normalised: wild type 0, dead -1); higher = more abundant; growth selection in yeast, the domain comes from the species named", "conditions": "Homo sapiens", "values": [{"variant": "FIDQHRAALIARVTNVEWLLDALYGKVLTDEQYQAVRAEPTNCSKMRKLFSFTPAWNWTCKDLLLQALRESQSYLVEDLER", "note": "[P43C]", "abundance fitness": "-0.147 ± 0.08"}, {"variant": "FIDQHRAALIARVTNVEWLLDALYGKVLTDEQYQAVRAEPTNASKMRKLFSFTPAWNWTCKDLLLQALRESQSYLVEDLER", "note": "[P43A]", "abundance fitness": "-0.045 ± 0.054"}, {"variant": "FIDQHRAALIARVTNVEWLLDALYGKVLTDEQYQAVRAYPTNPSKMRKLFSFTPAWNWTCKDLLLQALRESQSYLVEDLER", "note": "[E39Y]", "abundance fitness": "-0.49 ± 0.18"}, {"variant": "FIDQHRAALIARVTNVEWLLDALYGKVLTDEQYQAVRATPTNPSKMRKLFSFTPAWNWTCKDLLLQALRESQSYLVEDLER", "note": "[E39T]", "abundance fitness": "-0.789 ± 0.17"}, {"variant": "FIDQHRAALIARVTNVEWLLDALYGKVLTDEQYQAVRAHPTNPSKMRKLFSFTPAWNWTCKDLLLQALRESQSYLVEDLER", "note": "[E39H]", "abundance fitness": "-0.79 ± 0.38"}, {"variant": "FIDQHRAALIARVTNVEWLLDALYGKVLTDEQYQAVRASPTNPSKMRKLFSFTPAWNWTCKDLLLQALRESQSYLVEDLER", "note": "[E39S]", "abundance fitness": "-0.842 ± 0.11"}, {"variant": "FIDQHRAALIARVTNVEWLLDALYGKVLTDEQYQAVRAIPTNPSKMRKLFSFTPAWNWTCKDLLLQALRESQSYLVEDLER", "note": "[E39I]", "abundance fitness": "-0.909 ± 0.25"}, {"variant": "FIDQHRAALIARVTNVEWLLDALYGKVLTDEQYQAVRAMPTNPSKMRKLFSFTPAWNWTCKDLLLQALRESQSYLVEDLER", "note": "[E39M]", "abundance fitness": "-0.129 ± 0.1"}, {"variant": "FIDQHRAALIARVTNVEWLLDALYGKVLTDEQYQAVRAPPTNPSKMRKLFSFTPAWNWTCKDLLLQALRESQSYLVEDLER", "note": "[E39P]", "abundance fitness": "-0.914 ± 0.2"}, {"variant": "FIDQHRAALIARVTNVEWLLDALYGKVLTDEQYQAVRAKPTNPSKMRKLFSFTPAWNWTCKDLLLQALRESQSYLVEDLER", "note": "[E39K]", "abundance fitness": "-0.549 ± 0.11"}, {"variant": "FIDQHRAALIARVTNVEWLLDALYGKVLTDEQYQAVRAGPTNPSKMRKLFSFTPAWNWTCKDLLLQALRESQSYLVEDLER", "note": "[E39G]", "abundance fitness": "-0.669 ± 0.088"}, {"variant": "FIDQHRAALIARVTNVEWLLDALYGKVLTDEQYQAVRALPTNPSKMRKLFSFTPAWNWTCKDLLLQALRESQSYLVEDLER", "note": "[E39L]", "abundance fitness": "-0.303 ± 0.06"}, {"variant": "FIDQHRAALIARVTNVEWLLDALYGKVLTDEQYQAVRAWPTNPSKMRKLFSFTPAWNWTCKDLLLQALRESQSYLVEDLER", "note": "[E39W]", "abundance fitness": "-0.946 ± 0.19"}, {"variant": "FIDQHRAALIARVTNVEWLLDALYGKVLTDEQYQAVRAQPTNPSKMRKLFSFTPAWNWTCKDLLLQALRESQSYLVEDLER", "note": "[E39Q]", "abundance fitness": "-0.293 ± 0.11"}, {"variant": "FIDQHRAALIARVTNVEWLLDALYGKVLTDEQYQAVRARPTNPSKMRKLFSFTPAWNWTCKDLLLQALRESQSYLVEDLER", "note": "[E39R]", "abundance fitness": "-0.692 ± 0.075"}, {"variant": "FIDQHRAALIARVTNVEWLLDALYGKVLTDEQYQAVRANPTNPSKMRKLFSFTPAWNWTCKDLLLQALRESQSYLVEDLER", "note": "[E39N]", "abundance fitness": "-0.26 ± 0.24"}, {"variant": "FIDQHRAALIARVTNVEWLLDALYGKVLTDEQYQAVRAVPTNPSKMRKLFSFTPAWNWTCKDLLLQALRESQSYLVEDLER", "note": "[E39V]", "abundance fitness": "-0.815 ± 0.097"}, {"variant": "FIDQHRAALIARVTNVEWLLDALYGKVLTDEQYQAVRAEPTCPSKMRKLFSFTPAWNWTCKDLLLQALRESQSYLVEDLER", "note": "[N42C]", "abundance fitness": "-0.616 ± 0.1"}, {"variant": "FIDQHRAALIARVTNVEWLLDALYGKVLTDEQYQAVRAEPTSPSKMRKLFSFTPAWNWTCKDLLLQALRESQSYLVEDLER", "note": "[N42S]", "abundance fitness": "-0.445 ± 0.061"}, {"variant": "FIDQHRAALIARVTNVEWLLDALYGKVLTDEQYQAVRAEPTHPSKMRKLFSFTPAWNWTCKDLLLQALRESQSYLVEDLER", "note": "[N42H]", "abundance fitness": "-0.624 ± 0.14"}, {"variant": "FIDQHRAALIARVTNVEWLLDALYGKVLTDEQYQAVRAEPTQPSKMRKLFSFTPAWNWTCKDLLLQALRESQSYLVEDLER", "note": "[N42Q]", "abundance fitness": "-0.488 ± 0.11"}, {"variant": "FIDQHRAALIARVTNVEWLLDALYGKVLTDEQYQAVRAEPTGPSKMRKLFSFTPAWNWTCKDLLLQALRESQSYLVEDLER", "note": "[N42G]", "abundance fitness": "-0.331 ± 0.05"}, {"variant": "FIDQHRAALIARVTNVEWLLDALYGKVLTDEQYQAVRAEPTLPSKMRKLFSFTPAWNWTCKDLLLQALRESQSYLVEDLER", "note": "[N42L]", "abundance fitness": "-0.337 ± 0.061"}, {"variant": "FIDQHRAALIARVTNVEWLLDALYGKVLTDEQYQAVRAEPTDPSKMRKLFSFTPAWNWTCKDLLLQALRESQSYLVEDLER", "note": "[N42D]", "abundance fitness": "-0.221 ± 0.099"}, {"variant": "FIDQHRAALIARVTNVEWLLDALYGKVLTDEQYQAVRAEPTVPSKMRKLFSFTPAWNWTCKDLLLQALRESQSYLVEDLER", "note": "[N42V]", "abundance fitness": "-0.596 ± 0.082"}, {"variant": "FIDQHRAALIARVTNVEWLLDALYGKVLTDEQYQAVRAEPTMPSKMRKLFSFTPAWNWTCKDLLLQALRESQSYLVEDLER", "note": "[N42M]", "abundance fitness": "-0.48 ± 0.096"}, {"variant": "FIDQHRAALIARVTNVEWLLDALYGKVLTDEQYQAVRAEPTKPSKMRKLFSFTPAWNWTCKDLLLQALRESQSYLVEDLER", "note": "[N42K]", "abundance fitness": "-0.74 ± 0.24"}, {"variant": "FIDQHRAALIARVTNVEWLLDALYGKVLTDEQYQAVRAEPTTPSKMRKLFSFTPAWNWTCKDLLLQALRESQSYLVEDLER", "note": "[N42T]", "abundance fitness": "-0.336 ± 0.11"}, {"variant": "FIDQHRAALIARVTNVEWLLDALYGKVLTDEQYQAVRAEPTFPSKMRKLFSFTPAWNWTCKDLLLQALRESQSYLVEDLER", "note": "[N42F]", "abundance fitness": "-0.372 ± 0.14"}, {"variant": "FIDQHRAALIARVTNVEWLLDALYGKVLTDEQYQAVRAEPTAPSKMRKLFSFTPAWNWTCKDLLLQALRESQSYLVEDLER", "note": "[N42A]", "abundance fitness": "-0.188 ± 0.076"}, {"variant": "FIDQHRAALIARVTNVEWLLDALYGKVLTDEQYQAVRAEPTRPSKMRKLFSFTPAWNWTCKDLLLQALRESQSYLVEDLER", "note": "[N42R]", "abundance fitness": "-0.562 ± 0.057"}, {"variant": "FIDQHRAALIARVTNVEWLLDALYGKVLTDEQYQAVRAEPTPPSKMRKLFSFTPAWNWTCKDLLLQALRESQSYLVEDLER", "note": "[N42P]", "abundance fitness": "-0.306 ± 0.077"}, {"variant": "FIDQHRAALIARVTNVEWLLDALYGKVLTDEQYQAVRAEPTWPSKMRKLFSFTPAWNWTCKDLLLQALRESQSYLVEDLER", "note": "[N42W]", "abundance fitness": "-0.582 ± 0.076"}, {"variant": "FIDQHRAALIARVTNVEWLLDALYGKVLTDEQYQAVRAEPTIPSKMRKLFSFTPAWNWTCKDLLLQALRESQSYLVEDLER", "note": "[N42I]", "abundance fitness": "0.082 ± 0.31"}]}]}
